Assay results as given in patent publication US20250195685A1 (CAPSTAN THERAPEUTICS, published 2025).

Key:
[1] = molecular target: T1, human CD8αα homodimer, recombinant protein (Acro Biosystems) (human, UniProt P01732 22-182); assay: BLI, whole antibody
T1 construct: also called CD8αα antigen; biotinylated CD8α recombinant protein (CDA-H82E3)

[2] = molecular target: T1, human CD8αα homodimer, recombinant …; assay: BLI, whole antibody, steady state dissociation constant (column head x10^-9M)
Procedure: (§1) To assess affinity of whole antibodies, steady state analysis was used as the bivalent nature of both whole antibody and CD8α complicates kinetic analysis. 50 nM CD8α-His (that is, CD8α with a C-terminal oligohistidine tag; Acro) was immobilized on Ni-NTA sensor probes. Binding was analyzed with a three-fold antibody dilutions series: 60 nM, 20 nM, 6.67 nM, 2.22 nM, 0.74 nM, and 0.25 nM. The antigen-loaded sensors were incubated in the diluted solutions to capture the whole IgG antibody for 300 s to record the association phase. Sensors were incubated in the kinetic buffer for 900 s to record the dissociation phase. The spin speed was 1000 rpm for all steps except the antigen loading step which was 400 rpm to control density of the antigen. The temperature of the performed assays was at 30° C. during the association and dissociation phases. The sensor data were baseline subtracted and further analyzed in GatorOne software (version 2.10) to determine the equilibrium dissociation constants (KD) of the antibodies by fitting the signals of the steady states to the 1:1 binding model.

[3] = molecular target: T1, human CD8αα homodimer, recombinant …; assay: BLI kinetic rate KD on whole antibodies
[4] = molecular target: T1, human CD8αα homodimer, recombinant …; assay: BLI kinetic sensorgram, 1:1 global fit
Procedure: (§2) The global fitting was performed with a 1:1 fitting model using GatorOne software as described below.
(§3) To measure the binding kinetics of the biotin-conjugated Fab molecule, streptavidin-immobilized SA-XT sensors (#160029, Gator Bio) were prehydrated in the kinetic buffer and loaded with […] biotinylated Fab sample CBD1033.37 or CBD1033.24 to a threshold response of 10 nm. […] The binder-loaded sensors were incubated in the diluted solutions to capture the CD8α protein for 1200 s to record the association phase. Sensors were finally incubated in the kinetic buffer for another 1200 s to record the dissociation phase. The spin speed for all steps was 1000 rpm. The temperature of the performed assays were at 37° C. during the association and dissociation. The sensor data were baseline subtracted, and global curve fitting of the kinetic data from six different analyte concentrations at a 1:1 monovalent binding model was performed using the GatorOne software (version v2.10) to determine the kinetic rate constants (kₒₙ and koff) and equilibrium dissociation constants (KD) of the analyzed binder.

[5] = molecular target: T1, human CD8αα homodimer, recombinant …; assay: BLI kinetic assay, engineered F(ab') fragment
Procedure: as §2
Biolayer interferometry kinetic assays were performed using a GatorBio Gator Plus BLI system. Kinetic buffer containing PBS plus 0.1% Tween 20 and 0.2% BSA was used for calculating the baseline. To measure the binding kinetics of anti-CD8α antibody fragment (Fab), streptavidin-immobilized SA-XT sensors (#160029, Gator Bio) were prehydrated in the kinetic buffer and loaded with […] biotinylated CD8α recombinant protein (CDA-H82E3, Acro Biosystems) at a spin speed of 400 rpm to a threshold response of 10 nm. The sensors were then incubated in the kinetic buffer for 300 s to acquire a baseline measurement prior to each association. […] The antigen-loaded sensors were incubated in the diluted solutions to capture Fab fragments for 300 s to record the association phase. Sensors were finally incubated in the kinetic buffer for 900 s to record the dissociation phase. The spin speed for all steps except the antigen loading step was 1000 rpm. The temperature of the performed assays was either 30° C. or 37° C. during the association and dissociation phases. Sensor data were baseline subtracted, and global curve fitting of the kinetic data from six different analyte concentrations at a 1:1 monovalent binding model was performed using GatorOne software (version v2.10) to determine kinetic rate constants (kₒₙ and koff) and equilibrium dissociation constants (KD) of the analyzed antibodies.

[6] = molecular target: T2, custom recombinant human CD8α mouse IgG2a Fc fusion protein (human; mouse, UniProt P01732 22-182, limits assumed); assay: BLI kinetics, biotin-conjugated F(ab') on SA-XT sensor, HuCD8a mouse Fc fusion as analyte, 37 °C
T2 construct: Custom protein; also called human CD8α mouse Fc fusion protein; not shown: mouse IgG2a Fc
T2 sequence (P01732 22-182 limits assumed): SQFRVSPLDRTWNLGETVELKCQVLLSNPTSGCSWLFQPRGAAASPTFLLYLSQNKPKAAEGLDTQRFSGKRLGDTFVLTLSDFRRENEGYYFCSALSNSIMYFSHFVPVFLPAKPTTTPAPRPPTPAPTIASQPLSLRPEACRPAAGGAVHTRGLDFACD
Procedure: as §2, §3

[7] = molecular target: T2, custom recombinant human CD8α mouse …; assay: BLI kinetic sensorgram, 1:1 global fit, 37 °C
Procedure: as §2, §3

[8] = molecular target: T1, human CD8αα homodimer, recombinant …; assay: BLI steady state analysis of the data of FIG. 2G
Procedure: as §1

[9] = molecular target: T1, human CD8αα homodimer, recombinant …; assay: BLI steady state, whole hIgG1-LALAPA antibody on CD8α-His (Ni-NTA sensor), 30 °C
Procedure: as §1

T1 sequence (P01732 22-182 limits assumed): as above

B1: CBD1382 whole antibody (VH N55A of CBD1033), Fc-silenced human IgG1 (antibody, V domains shown)
VH: QVQLVQSGAEVKKPGASVKVSCKASRYTFTDYNLHWVRQAPGQGLEWMGFIYPYAGGTGYAQKFQGRVTMTVDTSTSTAYMELSSLRSEDTAVYYCARDHRYNEGVSFDYWGQGTTVTVSS
VL: DIQLTQSPSSLSASVGDRATITCRASESVDGFGNSFMNWYQQKPGKAPKLLIYLASNLESGVPSRFSGSGSGTDFTLTISSVQPEDFATYYCQQNNEDPYTFGQGTKLEIKR
[1]
  koff: 0.00195 s⁻¹
  kon: 1.63e+06 M⁻¹ s⁻¹
[2]
  Kd: 0.88 nM

B2: CBD1383 whole antibody (VH N55D of CBD1033, deamidation mimic), Fc-silenced human IgG1 (antibody, V domains shown)
VH: QVQLVQSGAEVKKPGASVKVSCKASRYTFTDYNLHWVRQAPGQGLEWMGFIYPYDGGTGYAQKFQGRVTMTVDTSTSTAYMELSSLRSEDTAVYYCARDHRYNEGVSFDYWGQGTTVTVSS
VL: DIQLTQSPSSLSASVGDRATITCRASESVDGFGNSFMNWYQQKPGKAPKLLIYLASNLESGVPSRFSGSGSGTDFTLTISSVQPEDFATYYCQQNNEDPYTFGQGTKLEIKR
notes: also called 100% deamidation mimic
[1]
  koff: 0.00303 s⁻¹
  kon: 1.1e+06 M⁻¹ s⁻¹
[2]
  Kd: 7.94 nM
[3]
  fold reduction of affinity compared to CBD1033: ~5.5 fold

B3: CBD1033.37 disulfide-engineered F(ab') analog (IgG1-derived) (Fab, V domains shown)
VH: QVQLVQSGAEVKKPGASVKVSCKASRYTFTDYNLHWVRQAPGQGLEWMGFIYPYNGGTGYAQKFQGRVTMTVDTSTSTAYMELSSLRSEDTAVYYCARDHRYNEGVSFDYWGQGTTVTVSS
VL: DIQLTQSPSSLSASVGDRATITCRASESVDGFGNSFMNWYQQKPGKAPKLLIYLASNLESGVPSRFSGSGSGTDFTLTISSVQPEDFATYYCQQNNEDPYTFGQGTKLEIKR
notes: Engineered CH1-F174C / CK-S162C interchain disulfide; native disulfide removed; also called .37 design
[4]
  Kd: 4.01 nM
  koff: 6.28e-05 s⁻¹
  kon: 15600 M⁻¹ s⁻¹
[5]
  Kd: 4.01 nM
  koff: 6.28e-05 s⁻¹
  kon: 15600 M⁻¹ s⁻¹

B4: maleimide-PEG-biotin conjugated CBD1033.37 F(ab') (Fab, V domains shown)
VH: QVQLVQSGAEVKKPGASVKVSCKASRYTFTDYNLHWVRQAPGQGLEWMGFIYPYNGGTGYAQKFQGRVTMTVDTSTSTAYMELSSLRSEDTAVYYCARDHRYNEGVSFDYWGQGTTVTVSS
VL: DIQLTQSPSSLSASVGDRATITCRASESVDGFGNSFMNWYQQKPGKAPKLLIYLASNLESGVPSRFSGSGSGTDFTLTISSVQPEDFATYYCQQNNEDPYTFGQGTKLEIKR
modifications: maleimide-PEG11-biotin on CH C230 (sequential numbering, corresponding to C239 in Kabat numbering)
notes: Loaded on streptavidin sensors through the biotin; also called biotinylated Fab sample CBD1033.37
[6]
  Kd: 6.85 nM
  koff: 0.000144 s⁻¹
  kon: 20900 M⁻¹ s⁻¹
[7]
  Kd: 6.85 nM
  koff: 0.000144 s⁻¹
  kon: 20900 M⁻¹ s⁻¹

B5: CBD1043 (antibody, human IgG1, kappa, L234A L235A, V domains shown)
VH: QVQLVQSGAEVKKPGASVKVSCKASRYTFTDYNLHWVRQAPGQGLEWIGFIYPYNGGTGYAQKFQGRVTITADTSTSTAYMELSSLRSEDTAVYYCARDHRYNEGVSFDYWGQGTLVTVSS
VL: EIVLTQSPGTLSLSPGERATLSCRASESVDGFGNSFMNWYQQKPGQAPRLLIYLASNLESGVPARFSGSGSGTDFTLTISRLEPEDFAVYYCQQNNEDPYTFGQGTKVEIKR
notes: also called CBD1043- hIgG1LALAPA; h1017-H7/L5 whole antibody
[8]
  Kd: 3.91 nM
[9]
  Kd: 3.91 nM
